Laboratory results from publication PMC6125409.
Read-outs that look alike come from different tables or passages of the source. Values belong to the substance of their own block, whether it stands above or below them.

Tests used:
EpCAM ECD (Homo sapiens) [1] = molecular target: EpCAM ECD (Homo sapiens) (UniProt P16422); details: cited from earlier work
EpCAM ECD (Homo sapiens) [2] = molecular target: EpCAM ECD (Homo sapiens) (UniProt P16422); details: cited from earlier work; remark: listed apart in the source
[3] = molecular target: mCherry-EpFL (N-terminal fusion of mCherry to full-length EpCAM) (UniProt P16422); assay: FRET or BRET; FLIM-FRET, donor sfGFP and acceptor mCherry both N-terminal on EpFL, co-transfected in the same cell (cis; GFPEX/CherryEX), equimolar plasmids; HEK 293 T and HCT8 #L13 cells, fixed; whole cell membrane region

Substance: EpCAM cis-dimer ECD (from UniProt P16422)
Kd (EpCAM ECD (Homo sapiens) [1]): 0.01 µM

Substance: EpCAM trans-tetramer (dimer-dimer) ECD (from UniProt P16422)
Kd (EpCAM ECD (Homo sapiens) [2]): 10 µM

average donor fluorescence lifetime [3]: 1.6 ns
Substance: sfGFP-EpFL (N-terminal fusion of sfGFP to full-length EpCAM) (from UniProt P16422 24-314) (receptor)
